Literature values in US20250064829A1, “METHODS OF USING ANTI-CD79B IMMUNOCONJUGATES TO TREAT DIFFUSE LARGE B-CELL LYMPHOMA” (Genentech, Inc., priority 2019, published 2025).

Legend:
human CD20 antigen [1] = molecular target: T1, human CD20 antigen (Homo sapiens, UniProt P11836); details: in vitro mechanism of action studies (Reff et al. 1994)
T1 sequence (P11836 1-297): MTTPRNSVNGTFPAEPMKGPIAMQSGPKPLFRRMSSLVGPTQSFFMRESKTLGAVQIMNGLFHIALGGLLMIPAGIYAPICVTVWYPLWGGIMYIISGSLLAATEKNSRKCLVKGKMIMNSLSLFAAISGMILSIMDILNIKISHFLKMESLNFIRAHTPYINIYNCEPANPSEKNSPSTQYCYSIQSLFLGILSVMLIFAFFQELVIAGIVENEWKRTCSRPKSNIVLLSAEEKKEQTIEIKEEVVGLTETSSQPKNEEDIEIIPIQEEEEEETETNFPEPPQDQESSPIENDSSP

human CD20 antigen [2] = molecular target: T1, human CD20 antigen; details: in vitro
[3] = 1000 mg/m^2 at fixed dose rate of 10 mg/m^2/min compared to the standard 30-minute IV schedule

Compound | human complement-dependent cytotoxicity (CDC) (human CD20 antigen [1]) | activity in assays that measure antibody-dependent cellular cytotoxicity (ADCC) (human CD20 antigen [2]) | intracellular drug concentrations [3]
rituximab: anti-CD20 antibody having the CAS Registry Number 174722-31-7; type I anti-CD20 antibody | exhibits human complement-dependent cytotoxicity (CDC) | exhibits activity | 
Cl.Nc1ccn([C@@H]2O[C@H](CO)[C@@H](O)C2(F)F)c(=O)n1 [gemcitabine, 2′-deoxy-2′,2′-difluorocytidine monohydrochloride] |  |  | superior intracellular drug concentrations
